From patent US20180327746, “Alpha-AMYLASE-BINDING NUCLEIC ACID MOLECULE AND USE THEREOF” (NEC Solution Innovators, Ltd., published 2018)

Tests used:
[1] = target: T1, alpha-amylase (Homo sapiens, UniProt P0DUB6 P0DUB6:16-511); test: SPR; SPR buffer with 1 mM MgCl2, pH 7.4; Chi2 23.87; conditions: tags: none stated; commercial human alpha-amylase, Lee Biosolutions; label: 3' poly(dA)20 captured on biotin-poly(dT)20
T1 sequence: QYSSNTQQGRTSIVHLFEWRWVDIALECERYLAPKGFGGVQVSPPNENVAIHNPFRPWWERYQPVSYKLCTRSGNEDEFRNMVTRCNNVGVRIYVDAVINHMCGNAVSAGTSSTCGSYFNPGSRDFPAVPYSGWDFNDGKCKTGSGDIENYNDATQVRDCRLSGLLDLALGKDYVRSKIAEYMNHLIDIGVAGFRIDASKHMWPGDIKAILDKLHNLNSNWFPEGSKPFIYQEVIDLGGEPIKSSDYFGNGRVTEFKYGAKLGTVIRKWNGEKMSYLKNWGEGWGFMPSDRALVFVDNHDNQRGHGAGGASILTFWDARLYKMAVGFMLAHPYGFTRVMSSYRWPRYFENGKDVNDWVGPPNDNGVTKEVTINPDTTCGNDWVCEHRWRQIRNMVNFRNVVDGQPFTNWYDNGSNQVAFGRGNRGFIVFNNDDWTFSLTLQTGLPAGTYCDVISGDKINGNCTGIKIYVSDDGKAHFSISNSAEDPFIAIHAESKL
Experimental: (§1) Biotinylated poly(dT) at 5 μmol/L was injected to a flow cell of the sensor chip using ultrapure water (DDW), and the binding was allowed to proceed until the signal intensity (RU: Resonance Unit) reached about 900 RU. The biotinylated poly(dT) was prepared by biotinylating the 5′ end of 20-mer deoxythymidine. Then, the poly(dA)-added aptamer at 200 nmol/L was injected to the flow cell of the chip using an SPR buffer at a flow rate of 25 μL/min for 80 seconds, and the binding was allowed to proceed until the signal intensity reached about 800 RU. […] With 0 seconds being the start of the injection, the mean value of signal intensities from 115 seconds to 125 seconds was determined. […] Then, the value (B/A) obtained by dividing the protein binding measured value (B) by the aptamer immobilization measured value (A) was determined as a relative value (Relative Unit).
(§2) The binding ability of the aptamers was analyzed by SPR in the same manner as in Example 1, except that the concentration of the α-amylase in the specimen was set to a plurality of values. The concentration was set to 20 nmol/L, 10 nmol/L, 5 nmol/L, 2.5 nmol/L, and 1.25 nmol/L. Then, from the results obtained by the SPR analysis, the kinetic parameter and the chi-squared value were calculated.

[2] = target: T1, alpha-amylase; test: SPR; SPR buffer with 1 mM MgCl2, pH 7.4; Chi2 3.85; conditions: tags: none stated; commercial human alpha-amylase, Lee Biosolutions; label: 3' poly(dA)20 captured on biotin-poly(dT)20
Experimental: as §1, §2

[3] = target: T1, alpha-amylase; test: SPR; SPR buffer with 1 mM MgCl2, pH 7.4; Chi2 4.17; conditions: tags: none stated; commercial human alpha-amylase, Lee Biosolutions; label: 3' poly(dA)20 captured on biotin-poly(dT)20
Experimental: as §1, §2

[4] = target: T1, alpha-amylase; test: SPR; SPR buffer with 1 mM MgCl2, pH 7.4; Chi2 31.8; text says all Kd 17 nM or less; conditions: tags: none stated; commercial human alpha-amylase, Lee Biosolutions; label: 3' poly(dA)20 captured on biotin-poly(dT)20
Experimental: Then, the poly(dA)-added aptamer at 200 nmol/L was injected to the flow cell of the chip using an SPR buffer at a flow rate of 25 μL/min for 80 seconds, and the binding was allowed to proceed until the signal intensity reached about 800 RU. […] Subsequently, the specimen was injected using the SPR buffer at a flow rate of 50 μL/min for 120 seconds, followed by washing performed by flowing the SPR buffer under the same conditions for 300 seconds. The concentration of the human α-amylase in the specimen was set to 400 nmol/L. Signal intensity measurement was performed concurrently with the injection of the specimen and the washing with the SPR buffer. With 0 seconds being the start of the injection, the mean value of signal intensities from 115 seconds to 125 seconds was determined. […] Then, the value (B/A) obtained by dividing the protein binding measured value (B) by the aptamer immobilization measured value (A) was determined as a relative value (Relative Unit).
as §2

[5] = target: T1, alpha-amylase; test: SPR; SPR buffer with 1 mM MgCl2, pH 7.4; Chi2 3.26; conditions: tags: none stated; commercial human alpha-amylase, Lee Biosolutions; label: 3' poly(dA)20 captured on biotin-poly(dT)20
Experimental: as §1, §2

[6] = target: T1, alpha-amylase; test: capillary electrophoresis; 200 nM aptamer, 2 uM amylase, 40 mM HEPES pH 7.5, 1 mM MgCl2; conditions: tags: none stated; commercial human alpha-amylase, Lee Biosolutions; label: 5' TYE665
Experimental: (§3) Reaction solutions containing the labeled aptamer (SEQ ID NO: 1) were prepared. Each of the reaction solutions was subjected to CAE under the following conditions. The reaction solution was caused to migrate while separating the components therefrom, and the fluorescence at a maximum absorption wavelength (665 nm) of the fluorescent substance was measured. As the reaction solutions, the following four types of reaction solutions were used: a reaction solution 1 containing the labeled aptamer only; a reaction solution 2 containing the labeled aptamer and the α-amylase; a reaction solution 3 containing the labeled aptamer and the saliva; and a reaction solution 4 containing the labeled aptamer as the negative control and the saliva. In each of the reaction solutions, the concentration of the labeled aptamer was 200 nmol/L. In the reaction solution 2, the concentration of the α-amylase was 2 μmol/L. In the reaction solutions 3 and 4, the concentration of the saliva was 10%. The reminder of each of the reaction solutions was a buffer solution. The composition of the buffer solution was as follows: 40 mmol/L HEPES (pH 7.5), 125 mmol/L NaCl, 5 mmol/L KCl, and 1 mmol/L MgCl₂.

[7] = target: T2, chromogranin A (CgA) (Homo sapiens, UniProt P10645 P10645:19-457); test: capillary electrophoresis specificity control; conditions: tags: N-terminal His-tag; full length, Creative BioMart CHGA-26904TH; label: 5' TYE665
T2 sequence: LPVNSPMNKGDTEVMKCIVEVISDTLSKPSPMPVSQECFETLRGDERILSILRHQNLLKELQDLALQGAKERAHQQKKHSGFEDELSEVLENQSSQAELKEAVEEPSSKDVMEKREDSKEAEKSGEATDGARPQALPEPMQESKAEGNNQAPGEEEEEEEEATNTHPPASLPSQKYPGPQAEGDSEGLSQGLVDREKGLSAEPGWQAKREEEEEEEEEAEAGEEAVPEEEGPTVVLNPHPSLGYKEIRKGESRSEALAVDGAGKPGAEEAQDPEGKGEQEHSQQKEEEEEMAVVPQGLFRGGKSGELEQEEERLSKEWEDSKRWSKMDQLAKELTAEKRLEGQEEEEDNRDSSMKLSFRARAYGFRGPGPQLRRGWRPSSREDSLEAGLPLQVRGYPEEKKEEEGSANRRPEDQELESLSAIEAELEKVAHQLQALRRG
Experimental: as §3
Preparation of the reaction solution 2 and the binding ability analysis by CAE were carried out in the same manner as in the above item (3), except that the labeled aptamers (SEQ ID NOs: 1, 2, 3, and 19) were used. Further, in order to examine the specificity of the labeled aptamers to the α-amylase, the binding ability analysis by CAE was performed in the same manner as in the case where the above-described reaction solution 2 was used, except that, instead of the α-amylase, human chromogranin A (CgA, recombinant full length protein, Creative BioMart, #CHGA-26904TH) or human IgA (secretory, Biomedicals, LLC-Cappel Products, #55905), each having a His-tag fused at the N terminus were used.

[8] = target: T1, alpha-amylase; test: SPR; SPR buffer with 1 mM MgCl2, pH 7.4; Chi2 5.05; conditions: tags: none stated; commercial human alpha-amylase, Lee Biosolutions; label: 3' poly(dA)20 captured on biotin-poly(dT)20
Experimental: as §1, §2

[9] = target: T1, alpha-amylase; test: SPR; SPR buffer with 1 mM MgCl2, pH 7.4; Chi2 10.58; conditions: tags: none stated; commercial human alpha-amylase, Lee Biosolutions; label: 3' poly(dA)20 captured on biotin-poly(dT)20
Experimental: as §1, §2

[10] = target: T1, alpha-amylase; test: SPR; SPR buffer with 1 mM MgCl2, pH 7.4; Chi2 4.3; conditions: tags: none stated; commercial human alpha-amylase, Lee Biosolutions; label: 3' poly(dA)20 captured on biotin-poly(dT)20
Experimental: as §1, §2

[11] = target: T1, alpha-amylase; test: SPR; SPR buffer with 1 mM MgCl2, pH 7.4; Chi2 24.55; conditions: tags: none stated; commercial human alpha-amylase, Lee Biosolutions; label: 3' poly(dA)20 captured on biotin-poly(dT)20
Experimental: as §1, §2

B1: AML1243KR8m2 (ssDNA)
DNA: GGATACCTTAACGCCGCCTATTGCTATGAGTAGTGTTTGTAGGTCTGGCATGCGAGTTGCACCCGTCTCGAAATCAAAAAAAAAAAAAAAAAAAA
modifications: KS9 modified T (formula 1) at underlined T, i.e. T 3' of the 5' primer region
B1 gave a Kd [1] of 2.6 nM.

B2: Amy_258KK10R8m1 (ssDNA)
DNA: GGTTACGCCCAGGACACATTTCAAAAGATGATGGCATACGTAAAGGGTCGAGGTAAGCTCGGTCTCCTCGGATAATCAAAAAAAAAAAAAAAAAAAA
modifications: KK10 modified T (formula 2) at double-underlined T, i.e. T 3' of the 5' primer region
B2 was tested, and the Kd [2] was 2.72 nM.

B3: AML1243KR8m1s65_FW_s20 (ssDNA)
DNA: TACCTTAACGCCGCCTATTGTGAACGACGTGAATAGTGTTTGTGGGTCCGGAGTTGCACCCGAAAAAAAAAAAAAAAAAAAA
modifications: KS9 modified T (formula 1) at underlined T, i.e. T 3' of the 5' primer region
B3 showed a Kd [3] of 0.68 nM.

B4: AML1243KR8m3 (ssDNA)
DNA: GGATACCTTAACGCCGCCTATTGCGAGGTGTGGCTAGTCGTTATAGGTCCACCGAGTTGCACCCGTCTCGAAATCAAAAAAAAAAAAAAAAAAAA
modifications: KS9 modified T (formula 1) at underlined T, i.e. T 3' of the 5' primer region
Work on B4 yielded a Kd [4] of 19.9 nM.

B5: AML1243KR8m1s58_FW_s20 (ssDNA)
DNA: TACCTTAACGCCGCCTATTGTGAACGACGTGAATAGTGTTTGTGGGTCCGGAGTTAAAAAAAAAAAAAAAAAAAA
modifications: KS9 modified T (formula 1) at underlined T, i.e. T 3' of the 5' primer region
With B5 the Kd [5] was 0.707 nM.

B6: TYE665-AML1243KR8m1 (ssDNA)
DNA: GGATACCTTAACGCCGCCTATTGTGAACGACGTGAATAGTGTTTGTGGGTCCGGAGTTGCACCCGTCTCGAAATC
modifications: KS9 modified T (formula 1) at underlined T, i.e. T 3' of the 5' primer region
B6: binds [6]; no binding [7].

B7: Amy_258KK10R8m2 (ssDNA)
DNA: GGTTACGCCCAGGACACATTTCATTGATGGCATACTAAGGGTCGAGGAATTCGTAAGCTCGGTCTCCTCGGATAATCAAAAAAAAAAAAAAAAAAAA
modifications: KK10 modified T (formula 2) at double-underlined T, i.e. T 3' of the 5' primer region
B7 showed a Kd [8] of 2.3 nM.

B8: AML1243KR8m1_KS9-3_mini (ssDNA)
DNA: GTGAACGACGTGAATAGTGTTTGTGGGTCCGGAGTTAAAAAAAAAAAAAAAAAAAA
modifications: KS9 modified T (formula 1) at all T
In the case of B8, the Kd [9] is reported as 0.607 nM.

B9: AML1243KR8m1 (ssDNA)
DNA: GGATACCTTAACGCCGCCTATTGTGAACGACGTGAATAGTGTTTGTGGGTCCGGAGTTGCACCCGTCTCGAAATCAAAAAAAAAAAAAAAAAAAA
modifications: KS9 modified T (formula 1) at underlined T, i.e. T 3' of the 5' primer region
With B9 the Kd [10] was 0.805 nM.

B10: AML1243KR8m2s49Fw_s15 (ssDNA)
DNA: TAACGCCGCCTATTGCTATGAGTAGTGTTTGTAGGTCTGGCAAAAAAAAAAAAAAAAAAAA
modifications: KS9 modified T (formula 1) at underlined T, i.e. T 3' of the 5' primer region
In the case of B10, the Kd [11] is reported as 2.66 nM.
